Test system: MS2 coat protein
Experiment: apparent KD of MS2 coat protein; designed switch direction (-1 OFF switch, 1 ON switch): -1; higher = weaker reporter binding
In short: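 An oligonucleotide input, 200 uM small-molecule ligand, or no input was present during titration of SNAP-549-labelled MS2 coat protein, which was doubled from 0.7 or 1.5 nM to 3 µM. Designed RNA switches had been transcribed on Illumina chips by stalled E. coli RNA polymerase. Apparent KD per design is the median over clusters of curves fitted to normalised cluster fluorescence.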

[1] = Eterna round: R95, input ligand: FMN 200 uM
[2] = Eterna round: R95, input ligand: microRNA oligo, concentration not stated
[3] = Eterna round: R95, input ligand: none
[4] = input ligand: microRNA oligo, concentration not stated

Sequence	apparent KD of MS2 coat protein [1] [µM]	apparent KD of MS2 coat protein [2] [µM]	apparent KD of MS2 coat protein [3] [µM]	apparent KD of MS2 coat protein [4] [µM]	apparent KD of MS2 coat protein (input ligand: FMN 200 uM) [µM]	apparent KD of MS2 coat protein (input ligand: none) [µM]
GAAAAGGUAGGAUAUACGAAAAGAAAGGGUAGAAAAAAAACACAUGAGGAUCACCCAUGUAGAAGGACCAAAAG [salish99_ex2_r3_027] (puzzle: Exclusion 2)	0.0587	0.0269	0.025			
UAUAUAUAGUAAGGAUAUGUAUUAGUUUUAUAAACAGAAGGUACUGACAUGAGGAUCACCCAUGUUUUAGUGUGGGCAUGUAGA [JMF's solution 74] (Eterna round: R96, puzzle: Exclusion NG 1)				0.0766		
UGCUGACGAGGAUAUACAUGAGGAUCACCCAUGUUGGUUCAGCGACUUCGGUCGCAAUGUAGAAGGCGUCAGCA [E3/9-A5] (Eterna round: R97, puzzle: Exclusion 3)					0.23	0.523
CCCAUGUUAGGAUAUAUGGAAGGGCAGACGGGCGCCCUAAGGUAGAAGGAACAUGAGGAUCACCCAUGUAAUAA [Zausteesre] (Eterna round: R97, puzzle: Exclusion 4)					0.113	0.0673
AGCUGUGGCCGAGGAUAUCUAACUUCAAUAACCGAAAUAUAAUCGGACAUGAGGAUCACCCAUGUAGAGAAGGCGGUCUCAGCA [Eli eng2 - 082] (Eterna round: R96, puzzle: Exclusion NG 2)				0.0107		
AUGAACAAUGUAGGAUAUGCGUGGCGAAGCUAUGCAGAAGGACAUGAGGAUCACCCAUGUUCAAGCGUCUGCGUACAGAUGCUA [JL eng1 1.35 mod 7] (Eterna round: R96, puzzle: Exclusion NG 1)				0.0103	0.0269	0.0138
AUAAAUCAUGUAGGAUAUGCGUGGCGAAGCUAUGCAGAAGGACAUGAGGAUCACCCAUGUGCUUCCGUCUGCGUACAGACGGUA [Mat - Exclusion NG 1 - Mod of JL - D10] (Eterna round: R96, puzzle: Exclusion NG 1)				0.0776	0.125	0.142
GGGAAACAUGAGGAUCACCCAUGUCAGGAUAUCCGCUUUAAUUAAAUAAAUAAAUAAUGGAGAAGGGACAGCCC [-12.9, -10.5 kcal, 39% A] (Eterna round: R97, puzzle: Exclusion 1)					0.0336	0.0337
AUGUGCACGCUGCGAUCCUACAUGAGGAUCACCCAUGUGGUCUGGUGGCGUGGGUCACCGGACUUGGCUCGUCUUGG [salish99_S_TOV1_R5_075] (Eterna round: R97, puzzle: Sensor, turn-off variant 1)					0.139	0.17
ACUUAUUGAGGAUAUACAGAUUAUUACAUGAGGAUCACCCAUGUUCUUCAAUGUAUAUAUGUAGAAGGCAGAGGAA [JL-ex5-4.24 Malcolm mod] (Eterna round: R97, puzzle: Exclusion 5)					0.0876	0.0397
AGUACUAUGCGUGCUGACAUGCGUAGUGCAGCAGGUGUAACAUGAGGAUCACCCAUGUCCUCAUUUGCUCGUCUUAU [Mat - Sensor v3 - Turn-off var 2 - D12] (puzzle: Sensor v3, turn-off variant 2)	0.116	0.201	0.127			
ACAUGUAAUGCAGGAUAUGGGACACAUGAGGAUCACCCAUGUUACCAUAUGUAAUGCUAAGAGUCUCAGAAGGGUAUGUACAUG [Ex NG2 #47] (Eterna round: R96, puzzle: Exclusion NG 2)				0.0122	0.0086	0.0156
GCCUGCUGGCGAGGAUAUCCUGUGCGGUUCCGGCUCGUGUCUGUUACAUGAGGAUCACCCAUGUGGGAGAAGGUGUCUGUGGCC [Design 99] (Eterna round: R96, puzzle: Exclusion NG 2)				0.0157	0.0177	0.0224
AAGGCCUGAGGAUAUCAGAGUCUAAACAUGAGGAUCACCCAUGUGAACCUGGUCAGUCUGUGAGAAGGUAGUGCUC [Tequat] (puzzle: Exclusion 5)	0.0395	0.0398	0.0573			
GUAUAUAGUGUGAGGAUAUGCUGGUCCUUGGAUCAGCAGAAGGCACAUGAGGAUCACCCAUGUAGUUAAAUAUG [Mat - Exclusion 4 - JL Mod - D21] (puzzle: Brourd's mod of Exclusion 4)		0.0263				
UACGGGUCAGGAUAUGCGAGAGAGUGGGAAAUAGGAAGGUAGCAGAAGGGACAUGAGGAUCACCCAUGUGAGGC [JR_Exclu4_Sub099] (puzzle: Exclusion 4)		0.0238				
CCUGGGUCAUCGCCCAGGAACAACAUGAGGAUCACCCAUGUCUAGGAUAUCCACCAGUCAAUAAAGGAGAAGGAGACGGUGGUU [Enusonor] (Eterna round: R96, puzzle: Exclusion NG 3)				0.0146	0.0229	0.0212

Sequence	apparent KD of MS2 coat protein [1] [µM]	apparent KD of MS2 coat protein [2] [µM]	apparent KD of MS2 coat protein [3] [µM]	apparent KD of MS2 coat protein [4] [µM]	apparent KD of MS2 coat protein (input ligand: FMN 200 uM) [µM]	apparent KD of MS2 coat protein (input ligand: none) [µM]
UUUUUACGAGGAUAUCGAUUGUGGUACAUGAGGAUCACCCAUGUAUGUGAUAUUGUAUUUCGAGAAGGCGUUCAGU [JR_E5_Sub060] (puzzle: Exclusion 5)		0.0215				
GAUCAUGCAGGAUAUACAUGUUCCAUGAAAACAUGGUCCUCACAUGAGGAUCACCCAUGUAGAAGGGCAUGAUC [Omei Ex2 A31] (Eterna round: R97, puzzle: Exclusion 2)					0.132	1.45
UCUGGUCGAGGAUAUACGUGAGGUGUUUCGGCACUAGGUCUACAUGAGGAUCACCCAUGUAGAAGGCGAUCAGA [EX2 #64] (Eterna round: R97, puzzle: Exclusion 2)					0.536	0.0606
AUCGUGCAGCUUUGCUGUACGAGUACAUGAGGAUCACCCAUGUAGGAUAUGGUACGCUUUGCGUGCUAGAAGGAUAUGAGAUUA [EX ENG3 1.48] (Eterna round: R96, puzzle: Exclusion NG 3)				0.0285	0.0402	0.031
UGGUGUUACGUAGGAUAUUGUCAACAGGCAGUAGGAUAUGCGAAAGCAGAAGGACCGCCAACAGGCGAGAAGGACGGGUUACCU [pwkr exNG2 2xF7 2xFMN.8] (Eterna round: R96, puzzle: Exclusion NG 2)				0.145	0.136	0.211
GUGUAGCGAGGAUAUACAUGAGGAUCACCCAUGUGAAUAAGAUAGAAUAAGAUAAAGUGUAGAAGGUGUAGUGU [Excluse me!!! 11 - Jieux - Exclusion 3] (puzzle: Exclusion 3)	0.0467	0.056	0.0545			
GUACGUAGAGGAUAUGGUUAUGAUGACAUGAGGAUCACCCAUGUUAGAGUGGGUAGAUUUCCAGAAGGCUGUGAAC [Eternabot (L1) Solution 98] (Eterna round: R97, puzzle: Exclusion 5)					1.06	1.33
AGCCACAGAGGAUAUACAUACAUCCAGUAGCAGAUAUUGCUACAUGAGGAUCACCCAUGUAGAAGGCUGUGGCA [Omei Ex2 BD B21] (Eterna round: R97, puzzle: Exclusion 2)					0.139	1.04
GGUCAGAUGGUAGGAUAUCCAUAUCGAGUGACCCUUUCAUAACAUGAGGAUCACCCAUGUCGGUGGGAGAAGGGCCGUAUGGCG [salish99_ExNG02_R04_022] (Eterna round: R96, puzzle: Exclusion NG 2)				0.0349	0.0698	0.0513
UUGACUGGCGAGGAUAUCUCGCAAUAGUUAGGGAGAGAAGGUGCUACAUGAGGAUCACCCAUGUCAAACGAACC [Eternabot (L1) Solution 58] (Eterna round: R97, puzzle: Exclusion 6)					0.0177	0.0219
UUAUUAUAUGAAGGAUAUACUUAACAUGAGGAUCACCCAUGUGGUGUUGUGAGUGAGUGAGUUUAGUAGAAGGUCAAUUCUUUU [JMF's solution 93] (Eterna round: R96, puzzle: Exclusion NG 2)				0.418		
UUUUUACAUGAGGAUCACCCAUGUGAGGAUAUGGUUUCGCUGGCCGUAGCCAGUGGAACCAGAAGGCGCAUGAU [Mat - Exclusion 1 - JL Mod - D8] (Eterna round: R97, puzzle: Exclusion 1)					0.374	0.0847
AAGUCUGGUGUAAGGAUAUUGUUAGACUUGGUGAGCAAGAAGGUACAUGAGGAUCACCCAUGUGGGAUACUAGC [Eternabot (Original) Solution 41] (Eterna round: R97, puzzle: Brourd's mod of Exclusion 4)					0.0405	0.04
ACAUGAGGAUCACCCAUGUGAAAAGAAUGGCUGACACAGAGAUAGGAUAUAGGUGCAUAUCUAACCUAGAAGGGUCAUGACUGG [Deportation 77 - Jieux - Exclusion NG 3] (Eterna round: R96, puzzle: Exclusion NG 3)				0.0223	0.0235	0.033
GUUAAGGUAGGAUAUACGAUAAGAUAGGGUAGAUAUAUAACACAUGAGGAUCACCCAUGUAGAAGGACCAAUUG [Mat - Exclusion 2 - Mod of my Tesla design - D56] (puzzle: Exclusion 2)		0.0292				
ACGAUGACCGAAAAGUGUAAACUGACAUGAGGAUCACCCAUGUAGGAUAUGGCUACGAAAAGUAGUCAGAAGGGCAUGUCAUCA [Omei Exc(NG) 3 Av9] (Eterna round: R96, puzzle: Exclusion NG 3)				0.0164	0.016	0.0209
